To fix the notation:
B1: CC chemokine ligand 18 (CCL18) (ligand, human, UniProt P55774 21-89, looked up)
chain: AQVGTNKELCCLVYTSWQIPQKFIVDYSETSPQCPKPGVILLTKRGRQICADPNKKWVQKYISDLKLNA

Test [1] has as its target T1, CCR3 (UniProt P51677 1-355).
T1 sequence (looked up): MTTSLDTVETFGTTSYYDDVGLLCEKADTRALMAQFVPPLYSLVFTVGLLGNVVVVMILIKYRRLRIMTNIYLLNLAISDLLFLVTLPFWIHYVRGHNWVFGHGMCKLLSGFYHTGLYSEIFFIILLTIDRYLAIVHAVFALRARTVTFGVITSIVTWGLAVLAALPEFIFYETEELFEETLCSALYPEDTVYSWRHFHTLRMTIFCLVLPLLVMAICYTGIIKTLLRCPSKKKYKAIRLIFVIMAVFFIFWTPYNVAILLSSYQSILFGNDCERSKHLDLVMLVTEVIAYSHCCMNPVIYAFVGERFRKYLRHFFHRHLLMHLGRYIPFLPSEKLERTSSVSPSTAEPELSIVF
The experiment in a line: cell-based or functional assay.

For test [2], the target named is T2, Radiolabeled CCL18 (125I-CCL18) (human, UniProt P55774 21-89, 125I label (radiolabeled; residue not stated)).
T2 construct: CCL18, radioiodinated; also called tracer; source: bought: Anawa
T2 sequence (looked up): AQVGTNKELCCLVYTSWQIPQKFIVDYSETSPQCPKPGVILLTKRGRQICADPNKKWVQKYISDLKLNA
The experiment in a line: radioligand binding; equilibrium competition: increasing concentration of Evasin against 125I-CCL18 binding to L1.2/CCR3 transfectants; Evasin binds the tracer. The following applies: both partners purified.

The target of test [3] is B1. The experiment in a line: SEC; 500 ug CCL18 and an equimolar amount of Evasin incubated 45 min at RT in PBS, Superdex 75 in PBS, 1.5 ml/min, calibrated column; fractions on silver stained SDS-PAGE; CCL18 and Evasins also run alone. As to conditions: both partners purified. (Size exclusion chromatography separates by hydrodynamic size, large species first.)
The target of test [4] is T1, CCR3. The experiment in a line: radioligand binding; equilibrium competition binding of 125I-CCL18 on L1.2/CCR3 transfectants, increasing concentration of unlabelled competitor. As to conditions: one partner purified.

Several values for one entry are separate records, joined by “and”; a condition that tells them apart may be missing. Identical values can stand only once.

With B1, in the test with CCR3 [1], the “inhibition of CCL11-induced chemotaxis of L1.2/CCR3 transfectants by CCL18 previously incubated with a twofold molar excess of Evasin-3 (no effect of Evasin-3), IC50, n = 3” value was found to be 446 nM; the “inhibition of CCL11-induced chemotaxis of L1.2/CCR3 transfectants by CCL18 with Evasin-3 as a control, IC50 of the experiment shown” value came out at 421 nM; the “inhibition of migration of L1.2/CCR3 transfectants to 1 nM CCL11 (blocks CCL11-CCR3), IC50 of the experiment shown” value was found to be 557 nM; the “inhibition of the chemotactic response of L1.2/CCR3 transfectants induced by 1 nM CCL11 (blocks CCL11-CCR3), IC50, mean of n = 7” value was 318 nM.

B2: Evasin-4 (natural protein)
chain: EVPQMTSSSAPDLEEEDDYTAYAPLTCYFTNSTLGLLAPPNCSVLCNSTTTWFNETSPNNASCLLTVDFLTQDAILQENQPYNCSVGHCDNGTCAGPPRHAQCW
modifications: glycosylated (sites not given)
notes: source: produced as previously described (18, 19)
Regarding B2, the IC50 in test [2] was 0.015 nM and 0.03 nM. Besides, in test [3], the “stoichiometry N” value worked out at 1.

B3: Evasin-1 (natural protein)
chain: EDDEDYGDLGGCPFLVAENKTGYPTIVACKQDCNGTTETAPNGTRCFSIGDEGLRRMTANLPYDCPLGQCSNGDCIPKETYEVCYRRNWRDKKN
modifications: glycosylated (sites not given)
notes: as for B2
As for B3, the concentration for half-maximal inhibition (IC50) in test [2] is 9.92 nM and 7.94 nM. In addition, the “stoichiometry N” value in test [3] came out at 1.

B4: CCL11 (ligand)
chain: not shown
notes: chemokine CCL11; source: obtained from PeptroTech or produced as previously described (17)
In the case of B4, the 50% inhibitory concentration (IC50) in the test with CCR3 [4] was 4.99 nM.

As usually defined, the IC50 is the concentration needed to halve the response being measured. High values mean weaker potency in that assay, low ones greater potency in that assay. A word on the stoichiometry N: it is the number of molecules, sites or subunits per partner or assembly.

The record behind these values is article PMC3711072, “The Activity of CCL18 is Principally Mediated through Interaction with Glycosaminoglycans” (Frontiers in Immunology, 2013).
